Experimental data from PMC4949257, “Three CoA Transferases Involved in the Production of Short Chain Fatty Acids in Porphyromonas gingivalis” (Frontiers in Microbiology, 2016).

Tests used:
purified protein = substrate: CC(=O)O; assay: purified protein; conditions: co-substrate butyryl-CoA, 40 mM potassium phosphate pH 8.0, ternary-complex mechanism
[1] = substrate: CCC(=O)SCCNC(=O)CCNC(=O)[C@H](O)C(C)(C)COP(=O)(O)OP(=O)(O)OC[C@H]1O[C@@H](n2cnc3c(N)ncnc32)[C@H](O)[C@@H]1OP(=O)(O)O; assay: acetyl-CoA formation, citrate synthase/DTNB A412, secondary plots; type: biochemical, Porphyromonas gingivalis; conditions: co-substrate sodium acetate, 40 mM potassium phosphate pH 8.0, ternary-complex mechanism
Excerpt: (§1) acetyl-CoA formation, citrate synthase/DTNB A412, secondary plots on PGN_0725

[2] = substrate: CCCC(=O)SCCNC(=O)CCNC(=O)[C@H](O)C(C)(C)COP(=O)(O)OP(=O)(O)OC[C@H]1O[C@@H](n2cnc3c(N)ncnc32)[C@H](O)[C@@H]1OP(=O)(O)O; assay: as above; type: biochemical, Porphyromonas gingivalis; conditions: co-substrate sodium acetate, 40 mM potassium phosphate pH 8.0, ternary-complex mechanism
Excerpt: as §1

[3] = substrate: CCCC(=O)SCCNC(=O)CCNC(=O)[C@H](O)C(C)(C)COP(=O)(O)OP(=O)(O)OC[C@H]1O[C@@H](n2cnc3c(N)ncnc32)[C@H](O)[C@@H]1OP(=O)(O)O; assay: as above; type: biochemical, Porphyromonas gingivalis; conditions: co-substrate sodium acetate, 40 mM potassium phosphate pH 8.0, ternary-complex mechanism; remark: listed apart in the source
Excerpt: acetyl-CoA formation, citrate synthase/DTNB A412, secondary plots on PGN_1341

[4] = substrate: CCC(=O)SCCNC(=O)CCNC(=O)[C@H](O)C(C)(C)COP(=O)(O)OP(=O)(O)OC[C@H]1O[C@@H](n2cnc3c(N)ncnc32)[C@H](O)[C@@H]1OP(=O)(O)O; assay: as above; type: biochemical, Porphyromonas gingivalis; conditions: co-substrate sodium acetate, 40 mM potassium phosphate pH 8.0, ternary-complex mechanism; remark: listed apart in the source
Excerpt: (§2) acetyl-CoA formation, citrate synthase/DTNB A412, secondary plots on PGN_1888

[5] = substrate: CCCC(=O)SCCNC(=O)CCNC(=O)[C@H](O)C(C)(C)COP(=O)(O)OP(=O)(O)OC[C@H]1O[C@@H](n2cnc3c(N)ncnc32)[C@H](O)[C@@H]1OP(=O)(O)O; assay: as above; type: biochemical, Porphyromonas gingivalis; conditions: co-substrate sodium acetate, 40 mM potassium phosphate pH 8.0, ternary-complex mechanism; remark: listed apart in the source
Excerpt: as §2

| Protein | Km (purified protein) | kcat (purified protein) | Km [1] | kcat [1] | Km [2] | kcat [2] | Km [3] | kcat [3] | Km [4] | kcat [4] | Km [5] | kcat [5] |
| --- | --- | --- | --- | --- | --- | --- | --- | --- | --- | --- | --- | --- |
| PGN_0725 (Porphyromonas gingivalis ATCC 33277) (protein, recombinant full-length, pGEX-6P-1 (GST vector) in E. coli; 431 aa) MKDVLAEYASRIVSAEEAVKHIKNGERVALSHAAGVPQSCVDALVQQADLFQNVEIYHMLCLGEGKYMAPEMAPHFRHITNFVGGNSRKAVEENRADFIPVFFYEVPSMIRKDILHIDVAIVQLSMPDENGYCSFGVSCDYSKPAAESAHLVIGEINRQMPYVHGDNLIHISKLDYIVMADYPIYSLAKPKIGEVEEAIGRNCAELIEDGATLQLGIGAIPDAALLFLKDKKDLGIHTEMFSDGVVELVRSGVITGKKKTLHPGKMVATFLMGSEDVYHFIDKNPDVELYPVDYVNDPRVIAQNDNMVSINSCIEIDLMGQVVSECIGSKQFSGTGGQVDYVRGASWSKNGKSIMAIPSTAKNGTASRIVPIIAEGAAVTTLRNEVDYVVTEYGIAQLKGKSLRQRAEALIAIAHPDFREELTEHLRKRFG | 16000 ± 1800 µM | 560 ± 4.1 s⁻¹ | 108 ± 47 µM | 533 ± 31 s⁻¹ | 520 ± 10 µM | 560 ± 4.1 s⁻¹ |  |  |  |  |  |  |
| PGN_1341 (Porphyromonas gingivalis ATCC 33277) (protein, recombinant full-length, pGEX-6P-1 (GST vector) in E. coli; 498 aa) MALRFITAEEAAEFVHHNDNVGFSGFTPAGNPKVVPAAIAKRAIAEHEKGNPFKIGMFTGASTGARLDGVLAQADAVKFRTPYQSNKDLRNLINNGSTSYFDLHLSTLAQDLRYGFYGKVDVAIIEVADVTEDGKILPTTGVGILPTICRLADRIIVELNDKHPKEIMGMHDLCEPLDPPARRELPVYTPSDRIGKPYVQVDPAKIVGVVRTSEPNDESDFAPLDPVTQAIGDNVAAFLVSEMKAGRIPKDFLPLQSGVGNVANAVLGALGDNPDIPAFNMYTEVIQDAVIALMKKGRIKFASGCSLSVSRSVIQDIYANLDFFKDKILLRPQEYSNNPEIVRRLGVITINTALEADIFGNINSTHVSGTRMMNGIGGSGDFTRNSYVSIFTTPSVMKDGKISSFVPMVAHHDHSEHSVKVIISEWGVADLRGKNPRERAHEIIDKCVHPDYRPLLRQYLELGVKGQTPQNLDCCFAFHQELAKSGDMRNVRWEDYMK | 26000 ± 2800 µM | 24 ± 0.3 s⁻¹ |  |  |  |  | 610 ± 40 µM | 24 ± 0.3 s⁻¹ |  |  |  |  |
| PGN_1888 (Porphyromonas gingivalis ATCC 33277) (protein, recombinant full-length, pGEX-6P-1 (GST vector) in E. coli; 431 aa) MQWQELYRQRVCSADEAVVDSLKPGTKVVFGHAAAAPVRFSQAMYRQRERLENITVFHMLYFGDAPHLAPEMRSHVHPTLNFLEGNSRPASRDRRVDFIPCHFHEVPELFRQGFFPLDVAVVQVSTPNEEGYCSFGVSCDYTKAAAECAPVVVAEVNKQMPFIGGENLIHISNLTHIIEVDEPIAEVLPPAISDLELRIGQNCASLIKDGDTLQLGIGGIPDAVLRALEGHKDLGIHTEMFTDGVMRMIRKGIINGKKKTLHPEKVVTSLIFGSKELYDFVNNNPVIECYPVDYINNPDVIGKNDRMVSINSCLEMDLMGQAASESIGYEQFSGSGGQVDFLRGAKRSKGGISIMAFPSTAKKGTESRIVPILKEGACVTTGRNEVDYVVTEYGVARLRGATLRQRAEALTAIAHPDFRPALEEEIRRRFE | 33000 ± 5300 µM | 254 ± 10 s⁻¹ |  |  |  |  |  |  | 23 ± 4.4 µM | 1374 ± 477 s⁻¹ | 920 ± 70 µM | 254 ± 10 s⁻¹ |
